Reference: patent US9458465B2, “Compositions and methods to modulate cell membrane resealing” (RUTGERS, THE STATE UNIVERSITY OF NEW JERSEY, priority 2007, dated 2016)

Key:
[1] = tested on: C2C12 cells expressing GFP-MG53; assay: Repair of acute membrane damage: translocation to microelectrode injury site; format: cell-based, murine; settings: C2C12 cells; acute membrane damage
Method: To follow the process of intracellular vesicle translocation associated with repair of acute membrane damage, GFP-MG53 fusion protein was expressed in C2C12 myoblast cells (FIG. 21a). […]
Cell culture—The C2C12 murine myoblast cell line used for all studies was purchased from the American Type Culture Collection (Manassas, Va.). Cells were grown in a humidified environment at 37° C. and 5% CO2 in DMEM medium for C2C12 or Ham's F12 medium for CHO cells supplemented with 10% fetal bovine serum, 100 units/ml penicillin and 100 ug/ml streptomycin. In order to induce myotube differentiation, C2C12 myoblasts were grown to confluence and the medium was switched to DMEM containing 2% horse serum, penicillin (100 U/ml), streptomycin (100 μg/ml). For transient transfections, C2C12 myoblasts or CHO cells were plated at 70% confluence in glass-bottom dishes. After 24 hours, cells were transfected with plasmids described above using GeneJammer reagent (Stratagene). Cells were visualized by live cell confocal imaging at 24-48 hours after transfection or at times indicated for individual experiments. In some experiments, C2C12 myoblasts were allowed to differentiate into myotubes for the indicated time before observation.
Live cell imaging—To monitor intracellular trafficking of GFP-MG53 either CHO or C2C12 cells were cultured in glass-bottom dishes (Bioptechs Inc.) and transfected with the plasmids described above. Fluorescence images (512×512) were captured at 3.18 s/frame using a BioRad 2100 Radiance laser scanning confocal microscope with a 63×1.3NA oil immersion objective.

mg53−/− myotubes = assay: Membrane repair in transfected mg53−/− myotubes; format: cell-based, mice
From the text: The entry of FM4-64, a red-shifted variant of FM1-43, was used as an index of membrane repair capacity in mg53−/− myotubes transfected with GFP-MG53 and GFP-C242A. Following UV-bleaching of the green fluorescence, rapid translocation of GFP-MG53 took place at the injury site, whereas GFP-C242A remained static due to its defective oligomerization properties (FIG. 16E, 17A).
Similar defects with GFP-C29L were also observed in C2C12 myotubes (FIG. 18e, middle).

[2] = tested on: Human gastric adenocarcinoma (AGS) cells; assay: GFP-MG53 translocation after microelectrode or saponin damage, AGS; format: cell-based; settings: microelectrode or 0.005% saponin
From the text: (§1) MG53 can translocate to membrane repair sites in gastric cells. Human gastric adenocarcinoma (AGS) cells were transfected with GFP-MG53 and then subjected to mechanical membrane damage by microelectrode needle penetration (top) or treatment with 0.005% saponin to permeabilize the membrane (bottom) (FIG. 45). Translocation of GFP-MG53 to the injury site (arrow) was monitored by live cell confocal microscopy.

Mouse primary astrocytes = assay: GFP-MG53 translocation after microelectrode or saponin damage, astrocytes; format: cell-based; settings: microelectrode or 0.005% saponin
From the text: as §1, with “neural” for “gastric”, “Mouse primary astrocytes” for “Human gastric adenocarcinoma (AGS) cells”, “46).” for “45).”

[3] = tested on: Human C38 airway epithelial cells; assay: GFP-MG53 translocation after microelectrode or saponin damage, C38; format: cell-based; settings: microelectrode or 0.005% saponin
From the text: as §1, with “airway epithelial” for “gastric”, “C38 airway epithelial” for “gastric adenocarcinoma (AGS)”, “47).” for “45).”

[4] = tested on: Mouse leukaemic monocyte macrophage (RAW 264.7) cells; assay: GFP-MG53 translocation after microelectrode or saponin damage, RAW 264.7; format: cell-based; settings: microelectrode or 0.005% saponin
From the text: as §1, with “immune” for “gastric”, “Mouse leukaemic monocyte macrophage (RAW 264.7)” for “Human gastric adenocarcinoma (AGS)”, “49).” for “45).”

[5] = tested on: human embryonic palatal mesenchymal (HEPM) dental cells; assay: GFP-MG53 translocation after microelectrode or saponin damage, HEPM; format: cell-based; settings: microelectrode or saponin detergent
From the text: (§2) MG53 can patch the plasma membrane in many different human cell types and prevent cell death. To test if exogenous MG53 can recapitulate membrane resealing function in non-muscle cell types, we used either adenovirus or liposome-based transfection methods to express GFP-MG53 in a number of different cell types. In all cell types tested, MG53 performed in a similar fashion as that seen in muscle cells. Here we illustrate these effects in immortalized human cell lines, including HEK293 (not shown) and human embryonic palatal mesenchymal (HEPM) dental cells (FIG. 43), as well as primary cultures of human keratinocytes (FIG. 42). […] The function of MG53 appears to be essential to allow membrane patching and survival of muscle cells following injury.

[6] = tested on: primary cultures of human keratinocytes; assay: GFP-MG53 translocation after microelectrode or saponin damage, keratinocytes; format: cell-based; settings: microelectrode or saponin detergent
From the text: as §2

B1: WT: wild type MG53 as GFP fusion protein expressed in cells (protein)
chain: MSAAPGLLRQELSCPLCLQLFDAPVTAECGHSFCRACLIRVAGEPAADGTVACPCCQAPTRPQALSTNLQLSRLVEGLAQVPQGHCEEHLDPLSIYCEQDRTLVCGVCASLGSHRGHRLLPAAEAQARLKTQLPQQKMQLQEACMRKEKTVAVLEHQLVEVEETVRQFRGAVGEQLGKMRMFLAALESSLDREAERVRGDAGVALRRELSSLNSYLEQLRQMEKVLEEVADKPQTEFLMKFCLVTSRLQKILSESPPPARLDIQLPVISDDFKFQVWKKMFRALMPALEELTFDPSSAHPSLVVSSSGRRVECSDQKAPPAGEDTRQFDKAVAVVAQQLLSQGEHYWEVEVGDKPRWALGVMAADASRRGRLHAVPSQGLWLLGLRDGKILEAHVEAKEPRALRTPERPPARIGLYLSFADGVLAFYDASNPDVLTPIFSFHERLPGPVYPIFDVCWHDKGKNAQPLLLVGPEQEQA
modifications: left off: large carriers
notes: wild type MG53 as GFP fusion protein expressed in cells
For B1, the “translocation to injury site and membrane repair function of GFP fusion protein” value [1] was “rapid accumulation”, the “translocation to the plasma membrane following injury” value (mg53−/− myotubes; primary cultured mg53−/− myotubes) was “could translocate to the plasma membrane following injury” and the “entry of FM4-64 (membrane repair capacity)” value (mg53−/− myotubes; transfected mg53−/− myotubes, UV injury) was “Significantly less entry of FM4-64”. The “translocation after cell membrane damage” value [2] was “translocation of MG53 to the plasma membrane”, the “translocation after cell membrane damage” value (Mouse primary astrocytes) was “translocation of MG53 to the plasma membrane” and the “translocation after cell membrane damage” value [3] was “translocation of MG53 to the plasma membrane”. The “translocation after cell membrane damage” value [4] was “translocation of MG53 to the plasma membrane”, the “translocation after membrane damage” value [5] was “effectively translocates to the plasma membrane” and the “translocation after membrane damage” value [6] was “effectively translocates to the plasma membrane”.
